Our source for the fold less relative binding than to full length HuCD7 values is patent US20020141999A1.

The target of the experiment is HuCD7-TR (human CD7 containing an internal deletion of the 36 amino acid tandem repeat) (human) (UniProt P09564). Nature of the experiment: HuK12-Fc on transfected COS-1 cells, 125I anti-human Fc, phosphorimager.
HuCD7-TR (human CD7 containing an internal deletion of the 36 amino acid tandem repeat) (human), sequence (P09564 other isoform, or with tags, fused parts or gaps limits assumed): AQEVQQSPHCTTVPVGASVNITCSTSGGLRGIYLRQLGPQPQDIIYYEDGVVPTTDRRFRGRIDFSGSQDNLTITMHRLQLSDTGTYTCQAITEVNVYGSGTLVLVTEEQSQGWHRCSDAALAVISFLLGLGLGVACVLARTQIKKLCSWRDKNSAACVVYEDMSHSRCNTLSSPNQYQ

B1: human K12-Fc fusion protein (extracellular domain of human K12 fused to the Fc portion of human IgG1) (Fc fusion, not shown: a dimerising Fc or GST)
chain: QNEGWDSPICTEGVVSVSWGENTVMSCNISNAFSHVNIKLRAHGQESAIFNEVAPGYFSRDGWQLQVQGGVAQLVIKGARDSHAGLYMWHLVGHQRNNRQVTLEVSGAEPQSAPDTG
Consider B1, for which the fold less relative binding than to full length HuCD7 turned out to be 10 fold.
